Measured values taken from paper PMC9747964 (Nature Communications, 2022).
“And” between values parts separate entries of the source, which are not always exact repeats. Equal entries are not always repeated. Each block holds one molecule with its values, some of them ahead of it.

Assays:
[1] = target: ComEAGs-OD (oligomerization domain of ComEAGs alone, codons 60-122) (Geobacillus stearothermophilus (ATCC 7953)); assay: AUC; sedimentation velocity, ComEAGs-OD at 12.7 μM, 37 krpm, 20 °C, 10 mM Tris pH 8, 100 mM KCl
[2] = target: ComEAGs (ComEA from Geobacillus stearothermophilus, codons 60-207) (Geobacillus stearothermophilus (ATCC 7953)); assay: AUC; sedimentation velocity, ComEAGs at 157 μM, 20 °C, 10 mM Tris pH 8, 100 mM KCl, 60 krpm
[3] = target: ComEAGs (ComEA from Geobacillus stearothermophilus, codons 60-207) (Geobacillus stearothermophilus (ATCC 7953)); assay: AUC; sedimentation velocity, ComEAGs at 31.3 μM (280 nm), fitted to a discrete monomer-dimer equilibrium model (genetic algorithm Monte Carlo); dimer to monomers; apparent; 20 °C, 10 mM Tris pH 8, 100 mM KCl
[4] = target: the molecule itself; assay: AUC; sedimentation velocity of 31.3 uM ComEAGs, measured at 280 nm, 60 krpm, 20 °C, 10 mM Tris pH 8, 100 mM KCl; fitted to a discrete monomer-dimer reversibly self-associating model by genetic algorithm Monte Carlo analysis (96 iterations); dimer to monomers
[5] = target: T1, ComEAGs wild-type (Geobacillus stearothermophilus (ATCC …, UniProt A0A0K9HI54 60-207)); assay: MW-AUC; 1.5 uM DNA, 5:1 and 10:1 protein:DNA; >90% DNA bound; ~3:1 complex, 3.9-4.0 S; MW-AUC: 10 mM Tris pH 8, 100 mM KCl, 20 C; EMSA: 10 mM Tris pH 8, 100 mM KCl, 2.5% glycerol, 0.5 mM EDTA, 1 mM MgCl2, room temperature 15 min, 8% native gel in; conditions: protein: recombinant; blunt
T1 sequence: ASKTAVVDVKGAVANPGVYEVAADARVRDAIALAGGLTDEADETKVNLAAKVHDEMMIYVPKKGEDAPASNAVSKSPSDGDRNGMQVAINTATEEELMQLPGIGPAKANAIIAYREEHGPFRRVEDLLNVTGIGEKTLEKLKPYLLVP

[6] = target: the molecule itself; assay: AUC; sedimentation velocity of ComEAGs-OD at 196 uM, 37 krpm, 20 °C, 10 mM Tris pH 8, 100 mM KCl; molar mass distribution
[7] = target: T1, ComEAGs wild-type; assay: EMSA; 0.5 uM DNA, 1 mM MgCl2; cooperative; MW-AUC: 10 mM Tris pH 8, 100 mM KCl, 20 C; EMSA: 10 mM Tris pH 8, 100 mM KCl, 2.5% glycerol, 0.5 mM EDTA, 1 mM MgCl2, room temperature 15 min, 8% native gel in; conditions: protein: recombinant; blunt
[8] = target: T1, ComEAGs wild-type; assay: MW-AUC; 1.5 uM DNA, 10:1 protein:DNA; >90% DNA bound; ~7:1 complex, 8.1 S; MW-AUC: 10 mM Tris pH 8, 100 mM KCl, 20 C; EMSA: 10 mM Tris pH 8, 100 mM KCl, 2.5% glycerol, 0.5 mM EDTA, 1 mM MgCl2, room temperature 15 min, 8% native gel in; conditions: protein: recombinant; blunt
[9] = target: the molecule itself; assay: crystal structure; ComEABs crystals, 22% PEG 500, 0.1 M succinate pH 5.5, 20 °C; 3.20 Å

stoichiometry N [1]: 2
Molecule: ComEAGs-OD (oligomerization domain of ComEAGs alone, codons 60-122) (domain or fragment)

Kd [2]: 10 to 160 µM | stoichiometry N [2]: 2 | Kd [3]: 33.8 µM
Molecule: ComEAGs (ComEA from Geobacillus stearothermophilus, codons 60-207) (domain or fragment)

B1: ComEA from Geobacillus stearothermophilus, residues 60-207 (domain or fragment)
chain: ASKTAVVDVKGAVANPGVYEVAADARVRDAIALAGGLTDEADETKVNLAAKVHDEMMIYVPKKGEDAPASNAVSKSPSDGDRNGMQVAINTATEEELMQLPGIGPAKANAIIAYREEHGPFRRVEDLLNVTGIGEKTLEKLKPYLLVP
notes: ComEA, Geobacillus stearothermophilus (ATCC 7953), codons 60-207 (without the N-terminal transmembrane region); also called ComEAGs; wild-type ComEAGs; source: E. coli BL21(DE3), purified (His-60 Ni resin, Source 15Q, Hitrap Heparin, Superdex200); not shown: His-Sumo, N-terminal, cleaved
koff [4]: 5.27e-05 s⁻¹

B2: EAGs14bp (dsDNA)
DNA 1: GTAGGACCATCTGC
DNA 2: GCAGATGGTCCTAC
binding result [5]: binds

B3: ComEAGs oligomerization domain alone, residues 60-122 (domain or fragment, Geobacillus stearothermophilus)
chain: ASKTAVVDVKGAVANPGVYEVAADARVRDAIALAGGLTDEADETKVNLAAKVHDEMMIYVPKK
notes: ComEA, Geobacillus stearothermophilus (ATCC 7953), codons 60-122 (oligomerization domain); also called ComEAGs-OD; ComEA-OD; source: E. coli BL21(DE3), purified by the same protocol as wild-type ComEAGs; not shown: His-Sumo, N-terminal, cleaved
stoichiometry N [6]: 4 and > 4

B4: EAGs30bp (dsDNA)
DNA 1: GCACTGTGAATATCACTACAGCAACCTTAG
DNA 2: CTAAGGTTGCTGTAGTGATATTCACAGTGC
binding result [7]: binds

B5: EAGs40bp (dsDNA)
DNA 1: CGTTAGCACTGTGAATATCACTACAGCAACCTTAGAATCG
DNA 2: CGATTCTAAGGTTGCTGTAGTGATATTCACAGTGCTAACG
binding result [8]: binds

B6: ComEABs (ComEA from Bacillus subtilis, codons 58-205) (domain or fragment, B. subtilis strain 168, UniProt P39694 58-205, looked up)
chain: SNETIVIDIKGAVQHPGVYEMRTGDRVSQAIEKAGGTSEQADEAQVNLAEILQDGTVVYIPKKGEETAVQQGGGGSVQSDGGKGALVNINTATLEELQGISGVGPSKAEAIIAYREENGRFQTIEDITKVSGIGEKSFEKIKSSITVK
notes: ComEA, Bacillus subtilis strain 168, codons 58-205 (lacks the N-terminal transmembrane region); source: E. coli BL21, purified (His-60 resin, Source 15Q, Superdex200); not shown: His6, C-terminal, kept
binding result [9]: binds
